We go through one substance from paper PMC6158489.

What is called Kd is the free concentration of one partner at which half of the binding sites on the other are occupied at equilibrium, for simple one-to-one binding. A low value points to tighter binding.

For this data set, the system named is VpsR (Vibrio cholerae). The experiment in a line: EMSA. (In general: Mobility shift assays separate free from complexed probe on a gel.)

Values joined by “and” are separate entries in the source; they are usually repeats but may differ in a detail not shown here. Equal values may be shown once.

Take PvpsL promoter fragment (-97 to +113): the equilibrium dissociation constant (Kd) is 2220 nM and 1660 nM.
